A short description of the data set: label from the status in PepcDB records.
In the case of “MKCRGHKNSYFCQDSNEIKSANSNSPLCGDHSFFEMATKQRKGSRSSGRNTSSANTRKGGNFLRRIFITPIRDTFSRDKVGFVFGAILLAIALYTTIAIGSFFVHGGVDQSVVRDAPVSDILLGRAPVANLCGIRGAVWSEWLMNGLFGFGTLFLLFCVFSLSLKLMGVVKRISVVKRLIFCGVMTFWTSLAAAFIYKLSGLEGFLRWGGMHGQEWTLFLERNIGKAGLIIVLLVLAVIIAVVVRSECMGFFRRLLGLSWISIPKLPKKERKNNHDESENESLGNGYDTGESENLSGYLNNSEYEDGPAGESADDPDDYIPPHKEEGENDSSQSIQMGSMTVELAQEEEKADEALLAEIKTDPRMDLASYKFPSVDLLTQYDLQQPPIDMNEIEENQKRIIATLDSFKIHVTPIKATVGPTVTLYEVAPDSGIKISRIRNLEDDIAMSLKAVGGIRIIAPMPGKGTIGIEVPNRKPQTVSMYSVLTSKKYQESDMDLPVALGKTITNEVFIFDLCKMPHLLIAGATGQGKSVGLNAMITSLLYKKHPAELKFVLVDPKMLEFAVYEAIERHYLAKLPDEDRAIVTDMTKVVPTLNSLCIEMDNRYRMLTEARVRNIKEYNDQIISGKLSRLHGHKFLPYIVLIVDEFADLIMTSGKEVERPITRIAQKARAAGIHMVVATQRPSTDIITGIIKANFPARIAFKVFSMIDSRTILDQPGANQLVGRGDMLFYQGKDTVRLQCAFLDTPECEAVTHHISLQESYTSAYELPEYVPEGEEGGPKAFNPQEKDPLFEEVARMVVNSQQGSTSNIQRKFNIGYNRAGRLMDQLEGAGIVSPQDGSKPRQVLIQDEMSLERLFETLR”, the protein production entry was “failed”. “MKDIIRFILRLVQNPIVLAILWFGVAIRGFWVSWTEGLANNYLIFSRSFFHALEQTPLYVEYPKEYFDLFLYGIPFTLLIAPFSIMPTMVGSALWSLCNALLLYFAIKKLEFEKWKTAIIVWLSYNGLYLSVVTQQYNAAVAAFILFTFILVERKKDFWAALMIVLGTLTKIYGIVGLAFFLFSKRKLYFLWGILFWAFVLFVVPMFYTSPQYVFDSYKEWVSILVVKNDVNELSFYQNISLLGMVRKITHAVEYSDMWLIIPGIVLFLLPYLRIGQYENRNFRLSFLASVLLFMVLFSTGTEECGYVGALIGVGIWYVSTPTYKKSFVLNTCLLLFCFALTAASSSSILFSKHFRTEYITSFALKALPCAIIWFKIIWEQLTQDYTSRTPTPFLHKKDDERIDVILPCYNPHEGWEQQLIEKHKELEGMLNGYNIRFIVVNDGSKRGFTEEAVLRLTNNLPNTIIVDNKINQGKGAAVRDGIAHSDSELALYTDYDFPYKIESVCQVIKYLEEGYDVVVANRNHTYYSQLSTRRKLASHASRFLNFMLLGLTHTDTQGGLKGFNCKGKAFLASTRIKQFLFDTEFIYKASLDDTTFIKEVPVDLRGEVMLPDMKKGVFVNELKNLLMICWRG”: the protein production result is “failed”. Consider “MKDNPISPTIPLDQDGVHHGFLKLPYSRDDSAWGSVMIPITVIQNGAGKTALLTGANHGDEYEGPVALQELAATTRAEDVTGRLIIVPYFNYPAFRASARTSPIDRGNLNRAFPGRPDGTVTQKIADYFQRTLLPMADVAVDFHSGGKTLDFVPFAAAHILEDKVLQDACFAAMQAFNAPYSVQLLEIDSEGMYDTAVEEMGKVLVTTELGGGGMSTARSNAIAKKGLRNVLIHFGILQGEMQIDPSVTLDMPDGDCYLFSEHDGLFEIMIDLGEPVQEGDLVARVWSPDRTGEAPVEYRARRSGVLISRHFPGMIKSGDCAAVIGVVEG”, for which the protein production entry is reported as “not failed”.

With “MKDPRDFVPEDLSDLETAMLEMAEKDIRKAYTITDKQERYAALDALKTEIINKFMPETEEDCKFSVDQIATVFKQLQAKIVRSNILDTKKRIDGRDLSTVRPIQSEVGILPRTHGSALFTRGETQAIVVATLGTGEDEQYIDSLTGLEHHHHHH”, the protein production result is “not failed”.

As for “MKDSIDFGNMEIPRLFRKLLIPTVLGMVFSAVFVITDGIFVGKGIGSDALAAVNITAPLFMITTGIGLMFGVGASVVASIHLSQGKRKVASINITQALAFSALLILVLSALCCYFAEPIGRLLGSSERLLPLVVEYMNWYVPFLVFYLLLSAGMFYIRLDGSPNYAMMCNAVSAIINIILDYVFIFQLGWGMMGAAFATSLGTMVGGLMTLIYLLRFSRNVGIYRIKLSRKSMRLTCRNIGYMIRLGSSAFISEASIASMMFLGNYVFISHLGESGVAAFSIVCYFFPIIFMVYNAIAQSAQPIISYNFGQQNPGRVARTIRLALKTALGCGIFFFAATLVFNHQIVGLFIDKSYQAYDIAVNGIPYFAVGYLFFALNIVGIGYYQSIERARRATVITLFRGTLFMLAGFLLLPPVLGVRGIWLAVPLAELLTLLLIIGIYLKDSFAVRR”, the protein production entry is reported as “failed”.
